Measured values published in paper PMC10369947.
Like-named read-outs stand apart in the source and are kept apart here.

How the values were obtained:
Assay in all cases: smFRET
[1] = target: T1, GAF-DBD (GAF-ZnF, Cy3) (Drosophila melanogaster, UniProt Q08605)
T1 sequence: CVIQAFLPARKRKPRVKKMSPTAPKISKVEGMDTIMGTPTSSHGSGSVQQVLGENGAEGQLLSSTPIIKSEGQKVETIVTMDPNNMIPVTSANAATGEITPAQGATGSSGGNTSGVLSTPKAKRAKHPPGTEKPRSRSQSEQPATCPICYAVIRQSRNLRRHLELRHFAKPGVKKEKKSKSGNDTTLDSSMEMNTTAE

[2] = target: T1, GAF-DBD (GAF-ZnF, Cy3); remark: listed apart in the source
[3] = target: T1, GAF-DBD (GAF-ZnF, Cy3); remark: listed apart in the source
[4] = target: T1, GAF-DBD (GAF-ZnF, Cy3); remark: listed apart in the source

B1: hsp70 flipped Cy5/Cy7 DNA (187 bp) (dsDNA)
DNA 1: TCATTTGTTTGGCAGAAAGAAAACTCTCAAAATTTCGTTGGCCGTTATAGCATATTCGTTTTGTGACTCTCCCTCTCTGTACTATTGTTAACCCACAAGGTCGCACAGTAAACGGCACACTGTACGTGTTGCTTCGAGAGAGCGCGCCACCTGGTGTCGCGAAAAGAGCGCCGGAGTATAAATAGAG
DNA 2: CTCTATTTATACTCCGGCGCTCTTTTCGCGACACCAGGTGGCGCGCTCTCTCGAAGCAACACGTACAGTGTGCCGTTTACTGTGCGACCTTGTGGGTTAACAATAGTACAGAGAGGGAGAGTCACAAAACGAATATGCTATAACGGCCAACGAAATTTTGAGAGTTTTCTTTCTGCCAAACAAATGA
modifications: amino-C6-T coupled dyes
- binding result [1]: binds

B2: hsp70 tandem Cy5/Cy7 DNA (187 bp) (dsDNA)
DNA 1: TCATTTGTTTGGCAGAAAGAAAACTCTCAAAATTTCGTTGGCCGTTATAGCATATTCGTTTTGTGAGAGAGGGAGAGAGTACTATTGTTAACCCACAAGGTCGCACAGTAAACGGCACACTGTACGTGTTGCTTCGAGAGAGCGCGCCACCTGGTGTCGCGAAAAGAGCGCCGGAGTATAAATAGAG
DNA 2: CTCTATTTATACTCCGGCGCTCTTTTCGCGACACCAGGTGGCGCGCTCTCTCGAAGCAACACGTACAGTGTGCCGTTTACTGTGCGACCTTGTGGGTTAACAATAGTACTCTCTCCCTCTCTCACAAAACGAATATGCTATAACGGCCAACGAAATTTTGAGAGTTTTCTTTCTGCCAAACAAATGA
modifications: amino-C6-T coupled dyes
- binding result [2]: binds

B3: hsp70 Site 2 Only Cy5/Cy7 DNA (dsDNA)
DNA 1: TCATTTGTTTGGCAGAAAGAAAACTCTCAAAATTTCGTTGGCCGTTATAGCATATTCGTTTTGTCCAGCACTGTAATAGTACTATTGTTAACCCACAAGGTCGCACAGTAAACGGCACACTGTACGTGTTGCTTCGAGAGAGCGCGCCACCTGGTGTCGCGAAAAGAGCGCCGGAGTATAAATAGAG
DNA 2: CTCTATTTATACTCCGGCGCTCTTTTCGCGACACCAGGTGGCGCGCTCTCTCGAAGCAACACGTACAGTGTGCCGTTTACTGTGCGACCTTGTGGGTTAACAATAGTACTATTACAGTGCTGGACAAAACGAATATGCTATAACGGCCAACGAAATTTTGAGAGTTTTCTTTCTGCCAAACAAATGA
modifications: amino-C6-T coupled dyes
- binding result [3]: binds

B4: Cognate-Motif Cy5-DNA (90 bp) (dsDNA)
DNA 1: GTTTTGTGAGTACGCGCTGTTGTACTATTGTTAACCCACAAGGTCGCACAGTAAACGGCACACTGTACGTGTTGCTTCGAGAGAGCGCGC
DNA 2: GCGCGCTCTCTCGAAGCAACACGTACAGTGTGCCGTTTACTGTGCGACCTTGTGGGTTAACAATAGTACAACAGCGCGTACTCACAAAAC
modifications: internal backbone Cy5 in strand 2
- binding result [4]: binds
